Results: the nanobody polyreactivity screen of Harvey et al. (2022)

test: yeast display, Sf9 membrane polyspecificity reagent, FACS + sequencing; frameworks hold sequencing errors
Method in brief: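 Sorting gates, low and high (top ~1%), were placed on anti-HA fluorescence to track expression and on streptavidin fluorescence to track reagent binding. A clone's polyreactivity label is taken from the gate it came out of. The reagent was 10% biotinylated, detergent-solubilized Sf9 membrane, applied for 1 hour at 4 °C to galactose-induced yeast display cells.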

Sequence | polyreactivity (PSR sort gate)
QVQLVESGGVLVQAGGSLRLSCAPSGYIYSKYAMGWYRQAPGKERELVASITGRGSRTYYADSVKGRFTISRDNAKNTVYLQMNSLKPEDIAVYFCAADWYGQKTSNRWYFRPGYDYWGQGTQVTVSS | high polyreactivity
QVQLVESGGVLVQEGGSLRLSCAASGRIFQIYAMGWYRQAPGKERELFAAISGSTSYADSVKGRFTISRDNAKNTVYLQMNSLKPEDTAVYYCAKRVVRGKVDYWGQGTQVTVSS | low polyreactivity
QVQLVESGGVLVQEGGSLRLSCADSGRIFYSNAMGWYRQAPGKERELVAAISYSGGRTYYADSVKGRFTISRDNAKNTVYLQMNSLIPEDTAVYYCAARYAWGYVDPGDYWGQGTQVTVSS | high polyreactivity
QVQLVESGGVLVQSGGSLRLSCAASGSTFAYYAMGWYRQAPGKERELVAPISWSGGSTYYADSVKVRFTISRDNAKNTVYLQMNSLNPEDTAVYYCNKRNVLDYDYWGQGTQVTVSS | low polyreactivity
QVQLVESGGVLVQSGVSLRLTCAASGITFNYNAMGWDSQAPGKERELVAAIRGSDSTTYYADSVKERFTISRDNAKNTVYLQMNSLKPEDTAVYYCAADYVQGFGFYYQWHYDYWGQGTQVTVSS | low polyreactivity
QVQLVESGGWLVQAGGSLRLSCAASGSSFYGYGMGSYRQAPGKERELVAANTGSGDTTYYADSVKGRFTNSRDNEKNTVYLQMNSLKPEDTAVYYCNARWHAEYDYWGQGTQVTVSS | low polyreactivity
QVQLVESGLGLVQAGGSLRLSCAASGRIFYLNDMGWYRQAPGIERELVADMTRSGGTTYYADSVKGRFTISRDNEKNTVYLQMNSLKPEETSVYYCAAESRFRYVYGVGYRPYLYGYWGQGTQVTVSS | low polyreactivity
QVQLVESGRGIVQAGGSLRLSCAASGSIFGWYAMGWYRQAPGKERELVASNSVTAGSTYYADSVKWRFTISRDNAKNTVYLLMYSLKPVYTAVYYCASDDDTADAVQLFYYWGQGTHVTVSS | low polyreactivity
QVQLVESGRGLDQAGGSLRLSCAASGSIIGANAMGWYRQAPGKERELVAAITDNTSTTFYADSVKGRFTISRDNAKNTVYLQMNSLKPEDTAVYYCNADRAVVLSTTVWGEYDYWGQGTQVTVSS | low polyreactivity
QVQLVESGRGLFQAGGSLRLSCAASGSTFTVNTMGWYRQAPGKERELVDAITKNGANTYYADSVKGRFTISRDNAKNTVYLQMNILKPEDTAVYYCAALYVYGKSYSRWLVELDYWGQGTQVTVSS | low polyreactivity
QVQLVESGRGLLQAGGSLPLSCAASGRIFAYNTMGWYRQAPGKERELVAAISWRGGSTYYADSVKGRFTISRDNAKKTVYFQMNSLKPEDTAVYYCSVLYSSFTRFDYWGQGSQVTVSS | high polyreactivity
QVQLVESGRGLLQAGGSLRLSCAASGSIFYPYVMGWYRQAPGKERELVASISWRGGRTYYADSVKGRFTISRDNAKNTVYLQMNSMKPEDTAVYYCAKRTYDSFYGYYYWGQGTQVTVSS | high polyreactivity
QVQLVESGRGLVLAGGSLRLSCAASGRIFRVNAMGWYRQAPGKERELVAAISRGGNTYYADSVKGRFTISRDNEKNTVSLQMNSLKPEDTAVYYCAASRSWPRMDYWGQGTQVSVSS | high polyreactivity
QVQLVESGRGLVQAGGSLPLSCAASGFIFRRYAMVWYRQAPGKERELVAGISRGGDSTYYADSVKGRFTISRDNAKNTVYLQMNSLKPEDTAVYFCAGQGRDSTPHGYWGQGTQVTVSS | high polyreactivity
QVQLVESGRGLVQAGGSLPLSSASSGLTFKTYAMGRYRQAPGKVSELVAAITSGGTSTYYADSVKGRFTISRDNAKNTVYFQMNSLKPEDTAVYYCAARYYFSYSVGYYYWGQGTQVTVSS | high polyreactivity
QVQLVESGRGLVQAGGSLRISCAASGFIFSKYAMGWYRQAPGKERELVAAISYSGGSTYYADSVKGRFTISRDNAKNTVYLQMNSLKPEDTAVYYCAAEGYGGYEHWGQGTQVTVSS | low polyreactivity
QVQLVESGRGLVQAGGSLRISSAASGFIYRYYAMGWYRQAPGKERELVAAINTGGTTYYADSVKGRFTISRDNAKNTVYFQMNSLKPEDTAVYYCAKRWPRSSLGDYWGQGTQVTVSS | high polyreactivity
QVQLVESGRGLVQAGGSLRLSCAASGFIFRDYAMGLYRQAPGKVRELVAAISSRGGGTSYADSVKGRFTITRDNAKNTVYLQMNSLKPEDTAVYYCNKGYGRYVVTAYDYWGQGTQVTVSS | high polyreactivity
QVQLVESGRGLVQAGGSLRLSCAASGFIFRYYAMGWYRQAPGKERELVAAINASGGRTYYADSVKGRFTISRDNARNSVYLQMNSLKPEDTAVYYCAAYRSYQTFDYWGQGTQVNVSS | high polyreactivity
QVQLVESGRGLVQAGGSLRLSCAASGFIFYSNAMGWYRQAPGKERELVAAISRGGGSTYFADSLKGRFTISRDNAKNTVYLQMNSLKPEDTAVYYCAKRRLSPQDDYWGQGTQVTVSS | high polyreactivity
QVQLVESGRGLVQAGGSLRLSCAASGFTFAGYAMGWYRQATGKERELVAAITWSGGRTYYADSVKGRFTISRDNAKNTVYLQMKSLKPEDTAVYYCAAASGRSRYEYWGQGTQVTVSS | high polyreactivity
QVQLVESGRGLVQAGGSLRLSCAASGIIFTYNAMGWYRQAPGKERELVAAISAGGGSTYYADSVKGRFTISRDNAKNTVYLQMNSLKPEDTAVYYCAAARRYATQFHYDSWGQGTQVTVSS | high polyreactivity

Sequence | polyreactivity (PSR sort gate)
QVQLVESGRGLVQAGGSLRLSCAASGITFLDYAMGWYRQAPGKERELVAAITKSGGSTYYADSVKGRFTISRDNAKNTVFLQMNSLKPEDTAVYYCAKGRHPLWVEQPYEFDYWGQGTQVTVSS | low polyreactivity
QVQLVESGRGLVQAGGSLRLSCAASGITFVRYAMGWYRQAPGKEREFVAAITTSGGSTYYADSVKGRFTISRDNAKYSVYLQLNSLKPEDTAVYYCAARANAASRTFNYWGQGTQVTVSS | high polyreactivity
QVQLVESGRGLVQAGGSLRLSCAASGNTFGENAMGWYRKAPGKERELVAAISNGGTTNYADSVKGRFTISRDNAKNSVYLQMNSLKPEDTAVYYCNAKFGISQPGHSGLLKMDYWGQGTQVTVSS | low polyreactivity
QVQLVESGRGLVQAGGSLRLSCAASGRIFDKYAMGWYRQAPGKERELVAAISSSGGSTYYADSVKGRFTISRDNAKNTVYLQMNSLKTEVTAVYYCARQRYYGYYYWGQGTQVTVSS | high polyreactivity
QVQLVESGRGLVQAGGSLRLSCAASGRIFRWYDMGWYRKAPGKERELVAAISSRGGSTYYADSVKGRFTISRDNAKNTVYLQMNSLKPEDTAVYYCAADTSGWQPRYDYWGQGTQVTVSS | high polyreactivity
QVQLVESGRGLVQAGGSLRLSCAASGRIFSVNTMGWYRQAPGKERELVAGITGGGSTNYADSVKGRFTISRDNAKNTVYLQMNSLKPEDTAVYYCAAGWRSGFDYWGQGTQVTVSS | high polyreactivity
QVQLVESGRGLVQAGGSLRLSCAASGRTFRWYAMGWYRKAPGKERELVAAISGSGDRTYYADSVKGRFTISRDNAKNTVYLQMYSLKPVDTAVYYCYKAYLLYYTYARGDYWGQGTQVTVSS | high polyreactivity
QVQLVESGRGLVQAGGSLRLSCAASGRTFYLYAMVWNIQAPGKERELVAAITFNGGSTYYADSVKGRFTISRDNAKNTVYLQMNSLKPEDTAVYYCAARLSKRSGYYYWGQVTQVTVSS | high polyreactivity
QVQLVESGRGLVQAGGSLRLSCAASGSIFTTNAMGWYRQAPGKERELVAAISKSGASTYYADSVKGRVTISRDNAKNTVYLQMNSLKPEDTAVYYCAAGLRYTGRFRFYYWGQGTQVTVSS | high polyreactivity
QVQLVESGRGLVQAGGSLRLSCAASGSTFATYAMGWYRQAPGKERELVAVITRGGRTYYADSVKGRFTISRDNAKNTVYLQMNSLKPEDNAVYYCAAKAYTYYARIGFDYWGQGTQVTVSS | high polyreactivity
QVQLVESGRGLVQAGGSLRLSCAASGSTFFDYAMGWYRQAPGKERELVATISWNGGSTYYADSVKGRFTISRDTATNTVYLQMNSLKPEDTAVYYCAKDRGYRYLGDYWGQGTQVSVSS | low polyreactivity
QVQLVESGRGLVQAGGSLRLSCAASGSTFGPYAMGWYRQAPGKEREFVAGISKSTSSTYYADSVKGRFTISRDNAKNTVYLQMNSLKPEDTAVYYCAAQGGRNRGYRYYWGQGTQVTVSS | high polyreactivity
QVQLVESGRGLVQAGGSLRLSCAASGSTFPKNAMGWYRQAPGKERELVASISSDGSTYYADSVKGRFTISRDNAKNTVYLQMNSLKPEDTAVYYCAAVLWEPPVHPGYDYWGQVTQVTVSS | low polyreactivity
QVQLVESGRGLVQAGGSLRLSCAASGSTFQSNAMGWYRQATGKERELVAAIDQSGGSTYYADSVKGRFTISRHNAKNTVYLQMNSLKPEDSAVYYCAAEYYYPQQPRKWYGYWGQGTQVTVSS | high polyreactivity
QVQLVESGRGLVQAGGSLRLSCAASGSTFVKYAMGWYRPAPGKERELVAAMNRSGASTYYADSVKGRFTISRDNAKNTVYLQMNSLKPEDTAVYYCAARFSWLGYYWGQGTQVTVSS | high polyreactivity
QVQLVESGRGLVQAGGSLRLSCAASGSTFYANTMGWYRQAPGKERELVAAISQSGGSTYYADSVKGRFTISRDNAKNTVYLQMNSLKPEDTAVYYCAARRLPRKERKLYYWGQGTQVTVSS | high polyreactivity
QVQLVESGRGLVQAGGSLRLSCAASGSTFYRYAMGWYRQAPGKERELVAGITGSGGRTYYADSVKGRFTISRDNAKNTVYLQMNSLKPEDTAVYYCNAYPSSSLFDYWGQGTQVTVSS | low polyreactivity
QVQLVESGRGLVQAGGSLRLSCAASGSTLYAYAMGWYRQAPGKESELVAAIRRGGRTNYADSVKGRFTISRDNAKNTVYLQMNSLKPEDTAVYYCAARGSKPYSNRLLDYWGLGTQVTVSS | high polyreactivity
QVQLVESGRGLVQAGGSLRLSCAASGSTRRYVMGWYRQAPGKERELVAVISRGGSTYYADSVKGRFTISRDNAKNSVYLQMNSLKPEDTAVYYCNGQPVIPRGGDYWGQATQVTVSS | high polyreactivity
QVQLVESGRGLVQAGGSLRLSCAASGVIFSIYAMGWYRQAPGKERELVAAISTSGGSTYYADSVKGRFTISRDNAKNTVYLQMNRLKPEDTAVYYCNARRGFYWSWRGRYISGDYWGQGTQVTVSS | high polyreactivity
QVQLVESGRGLVQAGGSLRLSCAGSGSIFEGYVMGWSRQAPGKEMELVAAITSGGGSTYYADSVKGRFTSSRDNAKNTVYLQMISVKPVDTALYYCNAVYRWVYRSYEYWGQGTQGTVSS | high polyreactivity
